In the nanobody polyreactivity screen of Harvey et al. (2022):

Assay: yeast display, Sf9 membrane polyspecificity reagent, FACS + sequencing; frameworks hold sequencing errors
Summary of the method: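 Synthetic nanobody libraries on Saccharomyces cerevisiae BJ5465 were galactose-induced for 36–48 hours, stained 1 hour at 4 °C with 10% biotinylated, detergent-solubilized Sf9 membrane reagent and enriched on streptavidin microbeads. FACS then separated cells into low and high (top ~1%) gates by anti-HA (expression) and streptavidin (reagent binding) fluorescence. Genes were colony-PCR amplified, MiSeq 2 × 250 sequenced and CDR-length filtered. A clone's polyreactivity label is that of its gate of origin.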

Sequence | polyreactivity (PSR sort gate)
QVQLVESGGGLVQAGGSLRLSCAASGRIFRVYAMGWYRQAPGKERELVAAITRGGSTYYADSVKGRFTISRDNAKNTVYLQMNSLKPEDTAVYYCAARTWHRYDYWGQGTQVTVSS | high polyreactivity
QVQLVESGGGLVQAGGSLRLSCAASGSIFVYYAMGWYRQAPGKERELVATINYNDGSTYYADSVKGRFTISRDNAKNTVYLQMNSLKPEDTAVYYCAADIVWSPESHPWYYVHYYYWGQGTQVTVSS | low polyreactivity
QVQLVESGGGLVQAGGSLRLSCAASGRTYQANTMGWYRQAPVKEREFVAAISTSVGSTYYADSVKGRFTISRDNAKNTVYLQMKSLKPEDTALFYCAKASQSWGRDDYYYWGQGTQVTVSS | low polyreactivity
QGQLVESGGGLLQAGGSLRLISAASGSTFPIYAMGWYRHAPRKERELVAAITWRGGSRKYYADSVKGRYTISRDNAKNTVYLQMNCLKPEDTAVYYCAAEYKWPLYGYWGQGTQVTVSS | low polyreactivity
QVQLVESGGGLVQAGGSLRLSCAASGSTFYINTMGWYRQAPGKEREFVAAITWSGGSTYYADSVKGRFTISRDNAKNTVYLQMNSLKPEDTAVYYCAADLYVGDMDYWGQGTQVTVAS | low polyreactivity
QVQLVESGGGLVQAGGSLRLSCAASGSIFPTNAMGWYRQAPGKERELVAAITSTAGSTYYADSVKGRFTISRDNAKNSVYLQMNSLKPEDTAVYYCAATYKVGVKSWYDYWGQGTQVTVSS | high polyreactivity
QVQLVESGGGLVQAGGSLRLSCAASGFTFGVYAMGWYRQAPGKERELVAAISSTGGSTYYADSVKGRFRISRDNAKNTVYLQMKSLKPEDTAVYYCAADPYPEYIRYLPGVVYWGQGTQVTVSS | low polyreactivity
QVQLVESGGGLVQAGGSLRLSCAASGSIFANNGMGWYRQAPGKERELVARISKRGGSTYYADSVKGRFTFSRDNAKNTVYLQMNSLKPEDTAVYYCNVRSWWGYTGPYDYWGQGTQVTVSS | high polyreactivity
QVQLQESGGGLVQAGGSLRLSCAASGNIFEADIMGWYHQAHGKERELVASITDGGSTNYADSVKGRFNIKRDNAKNIVYLQMNSLKPEDTAVYYCAAIAYPDIATYFDYDSDYFYWGQGTQVTVSS | high polyreactivity
PLQLVESGGGLGQAGGSLRLSCAASGSTFGHNAMGWYRPAPGKERELVAAISISGGRTYYADSVKGRFTISRDNAKNTVYLQMISRKPEDTAVYYCAAEVWYVGDNYDYWGQGTQVTLSS | high polyreactivity
QVQLVESGGGLVQAGGSLRLSCAASGFTFGYYAMGWYRQAPGKERELVAGISRGGRTNYADSVKGRFTISRDNAKNTVYLQMNRLIPEDTAVFYCAARVVLSPGGYGYWGQGTQVTVSS | high polyreactivity
QVQLVESGGGLVQAGGSLRLSCAASGSIFQPNMGWYRQAPGKERELVASITTGTTKYADSVKGRFTISRDNAKNTVYLQMNSLKPEDTAVYYCAADLQATVYLIFGYWGQGTQVTVSS | low polyreactivity
QVQLVESGGGLVQAGGSLRLSCAAYGYIFLRNAMGWYRQAPGKERELVAAIRRTGGSTYYADSVKGRFTISRDNAKNTVYLQMNSLKPEDTAVYYCAKRSYTGYEYWGQGTQVTVSS | low polyreactivity
QVQLVESGGGLVQAGGSLPLSCAASGIIFPYNAMGWSRQAPGKERELVAAITGGGSTYYADSVKGRFTISRDNAKNTVYLPMNSLKPEDSAVYYCAADGSGPGYDYWGQGTQVTVSS | low polyreactivity
QVQLVESGGGLVQAGGSLRLSCAASGSIFYWNAMGWYRQAPGKERELVAAISYNGGSTYYADSVKGRFTISRDNAKNTVYLQMNSLKPEDTAVYYCARLDSAAEPRQYDYWGQGTQVTVSS | high polyreactivity
QVQLVESGGGLVQAGGSLRLSCAASGRTFAPYVMGWYRQAPGKERELVAAITLSGDSTDYADSVKGRFTISRDNAKNTVYLQMNSLKPEDTAVYYCNVEYLSYTSYFHYYEYDYWGQGSQVTVSS | low polyreactivity
QEQLQESGGGLVQAGGSLRLSCAASGIIFDWFFMGWYRQAPGREREFVAAITYGATTNYADSVKGRFTISRDNGKNTVYLQMNSLKPEDSAVYYCAAQHRGVQVTFGEYDYWGQGTQVTVSS | low polyreactivity
QVQLVESGGGLVQAGGSLRLSCAASGSTIGGYAMGWYRQAPGKERELVAAITRSGGRTYYADSVKGRFTISRDNAKKTVYLQMNSLKPEDTAVYFCATLVTNARYDSWGQGTQVTVSS | high polyreactivity
QVQLVESGGGLVQAGGSLRLSCAASGSIFSFNAMGWYRQAPGKEREFVAAIFGVTRTYYADSVKGRFTISRDNAKNTVYLQMNSLKPEDTAVYYCAARPPYRRYSEPRFGYWGQGTQVTVSS | high polyreactivity
QVQLVESGGGLVQAGGSLRLSCAASGFTFGRYVMGWYRQAPGKGRELVAAITSSGSRTYYADSVKGRFTISRDNAKNTVYLQMNSLKPEHTAVYYCAARVYWTPVYYWGQGTQVTVSS | high polyreactivity
QVQLVESGGGLVQAGGSLRLSCAASGYTFIRNGMGWYRQAPGKERDLVAAISRRGGSTYYADSVKGRFTISRDNAKNTVYLQMNRLKPEDTAVYYCAKASTERMGSWGQGTQVTVSS | high polyreactivity

Sequence | polyreactivity (PSR sort gate)
QVQLVESGGGLVQAGGSLRLSCAASGFIFSSNAMGWYRQAPGKEREFVAAISFRGGTTYYADSVKRRFTISRDNAKNTVYLQLNSLKPEDTAVYYCNAVRWRSGRWWWYDYWGQGTQVTVSS | low polyreactivity
QVQLVESGGGLVQAGGSLRLSCAASGSTFFSYAMGWYRQAPGKERELVAVITGSDGRTFYADSVKGRFTISRDNAKNTVYLQMNSLKPEDTAVYYCAADAVFRATRYDRSTSEDDYWGQGTQVTVSS | low polyreactivity
QVQLVESGGGLVQAGGSLRLSCAASGRTCYINAMGWYRQAPGKERELVAAISSGGSTNYADSVKGRFTISRDNAKNTVYLQMNSLKPEDTAVYYCNAKYYQGTPVELDYWGQATQVTVSS | low polyreactivity
QVQRVESGGGLVQAGGSLRLSCAASGRNFTRYAMGWYRQAPGKERELVASISRRGGSTYYADSVKGRFTISRDNAKNTVYLQMNSLKPEDTAVYYCNALVIARNIEMDYWGQGTQVTVSS | high polyreactivity
QVQLVESGGGLVQAGGSLRLSCAASGFTFRSYTMGWYRQAPGKERELVASIRYGGGSTYYADSVKGRFTISRDNAKNTVYLQMNSLKPEDTAVYYCSAESAWTSPYDYWGQGTQVTVSS | high polyreactivity
QVQLEDSGRGLFQAGGSLRLSCAASGSNFAHYAMGWYIQAQGKERELVARFSWSGGSTYYADSVKGRFTISRDNAKNTVYLQMNSLKPEDTAVYYCAADHLYWGLEYEPWGQGTQVTVSS | low polyreactivity
QVQLVESGGGLVQAGGSLRLSCAASGFTSSRNAMGWYRQAPGKERELVATISSGGDTYYADSVKGRFPISRDNAKTTVYLQMNSLKPEDTAVYYCNKDPLYAWGYDYWGQGTQVTVSS | low polyreactivity
QVQLVESGGGLVQAGGSLRLSCAASGRTFRFNAMGWYRQAPGKERELVAAISFRGGSTYYADSVKGRFTISRDNAKNTVYLQMNSLKPEHTAVYYCAARARTGTYRDMYYWGQGTQVTVSS | high polyreactivity
QVQLVESGGGLVQAGGSLRLSCAASGSIFDYYAMGWYRQAPGKERELVAAISWSGGSTYYADSVKGRFTISRDNAKNTVYLQMNSLKPEDTAVYYCAAEYYGGELDYWGQGTQVTVSS | low polyreactivity
QVQLVESAGGLVQAGGSLRLSCDASGYTFNYNTMGCYRQARGKERELVSAINTSGSTDYADSVKGRFTISRDNAKNTDYLLMNRLKPEDTAVYYCAVRVAYKYNYWGQGTQETVSS | high polyreactivity
QVHLVESAGGLVQAGGSLRLSCAASGLIFGTYAMGWYRPAPGKERELVATINSSGGSTYYADSVKGRFTISRDNAKNTVYLQINSLKPEDTAVYYCAADNWVNDGDYWGQGTQVTVLS | low polyreactivity
QVQLVESGGGLVQAGGSLRLSCAASGRTSYGYAMGWYRQAPGKERELVAAITSSGGSTYYADSVKGRFTISRDNAKNTVYLEMNSLKPEDTAVYYCAASRVRYSYGYPYYYWGQGTQVTVSS | high polyreactivity
QVQLVESGGGLVQAGGSLRLSCAASGLIFISYAMGWYRQAPGKERELVAAITSTVGGTYYADSVKGRFTISRDNAKNTVYLQMNSLKPEDTAVYYCAAEISYRWWYNLGFTSFVYWGQGTLVTVSS | low polyreactivity
QVQLVESGGGLVQAGGSLRLSCAASGSILDYNTMGWYIQAPGKERELVAAIDDDSTYYADSVKGRFTISRDNAKNTVYLQMNSLKPEDTAVYYSAVDWYYGDTYGYYYWYDYWGQGTQVTVSS | high polyreactivity
QVQLVESGGGLVQAGGSLRLSCAASGFISGYYTMRWYRQAPGKARELVAVINSGGSTYYADSVKGRFTISRDNAKNTVYLQMNSLKPEDTAVYYCAKLGGKYSRYYYWGQGTQVTVSS | low polyreactivity
QVQLVESGGGLVQAGGSLRLSCAASGSISYPYDMGWYRQAPGKDRELVAAISGSGGRTYYADSLKGRFTLSRDTAKNTVYLQMNSLKPEVTAVYYCAAERGAYRGVTFTYGYWGQGTQVTVSS | high polyreactivity
QVQLVESGGGLVQAGGSLRLSCAASGNTFAGNAMGWYRHAPRKERELVAAISRSGVTTRYGDSVKGRFTISRDNAKNTVYLQMNSLKPEDTAVYYCNAVPRLRQTREYWGQGTQVTVSS | high polyreactivity
QVQLVESGGGLVQAGGSLRLICAASGRIFRYNALGWYRQAPGKERELVATISGTSRTKYADSVKGRFTISRDNAKHTVYLQMNSLKPEDTAVYYCAARRYGWGRAQSSASYDHWGQGTQVTVSS | high polyreactivity
QVQLVVSRGGLVQAGGSLRLSCAASGSTFYYNAMGWYRQAPGKERELVAAISRSGGRTYYADSVKGRFTISRDNAKNTVYLQMNSLKPEDTAVYYCAAEYFDWWVTYDYWGQGTQVTVSS | high polyreactivity
QVQLVESGGGLVQAGGSRRLSCAASGSIFIPYVMGWYRQAPGKERELVAVITSGGDTYYADSVKGRFTISRDNAKNTVYLQMNSLKPEDTAVYYCNATFWYPPWWYEYDYWGQGTQVTVSS | low polyreactivity
